According to patent US20250154287A1 (Pfizer, published 2025):

Legend:
[1] = target: T1, human membrane IgA overexpressed on Ramos cells (human); assay: flow cytometry, cell binding on IgA+ Ramos cells; fit table under the plot, unit from the y axis (gMFI minus secondary only)
T1 construct: its MIGIS-α segment is the short form; also called IgA^+ Ramos; human IgA^+ RAMOS cells

[2] = target: T2, parental (IgA^-) Ramos cell line, which expresses only cell surface IgM (UniProt P01871 1-474); assay: flow cytometry on parental Ramos cells
T2 construct: whole, on cells; Negative control cells without membrane IgA; also called mIgA negative Ramos cells; parental Ramos
T2 sequence (P01871 whole entry): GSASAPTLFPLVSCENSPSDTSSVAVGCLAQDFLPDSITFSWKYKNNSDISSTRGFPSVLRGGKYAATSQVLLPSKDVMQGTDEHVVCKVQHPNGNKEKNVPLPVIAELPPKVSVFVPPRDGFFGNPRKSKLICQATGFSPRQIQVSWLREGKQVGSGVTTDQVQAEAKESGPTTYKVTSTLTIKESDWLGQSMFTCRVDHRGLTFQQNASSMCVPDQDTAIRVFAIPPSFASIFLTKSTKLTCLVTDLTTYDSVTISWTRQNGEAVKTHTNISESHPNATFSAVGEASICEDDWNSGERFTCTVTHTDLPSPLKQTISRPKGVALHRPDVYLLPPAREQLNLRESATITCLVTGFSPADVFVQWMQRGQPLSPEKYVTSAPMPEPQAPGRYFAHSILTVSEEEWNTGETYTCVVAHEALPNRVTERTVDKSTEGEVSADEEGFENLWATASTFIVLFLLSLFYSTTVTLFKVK

[3] = target: T1, human membrane IgA overexpressed on …; assay: flow cytometry, cell binding on IgA+ Ramos cells; fit table under the plot (the text prints 2.9 nM)
[4] = target: T1, human membrane IgA overexpressed on …; assay: flow cytometry on IgA+ Ramos cells
Short MIGIS-α form = target: T3, Short MIGIS-α form (human); assay: crystal structure
T3 construct: fused to the N-terminus of the VH of Fab-0027 in the crystal; also called Short Form
T3 peptide: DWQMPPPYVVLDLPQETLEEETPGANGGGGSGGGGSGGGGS

Long MIGIS-α form = target: T4, Long MIGIS-α form (human); assay: crystal structure
T4 construct: fused to the N-terminus of the VH of Fab-0027 in the crystal; also called long MIGIS-α peptide; Long Form
T4 peptide: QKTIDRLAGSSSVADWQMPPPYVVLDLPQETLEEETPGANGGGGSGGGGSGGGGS

[5] = target: T5, biotinylated human MIGIS-α peptide (human, biotinylated); assay: SPR, OAA format
T5 peptide: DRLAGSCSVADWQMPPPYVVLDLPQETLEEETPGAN

[6] = target: T6, biotinylated cyno MIGIS-α peptide (cynomolgus monkey); assay: SPR, OAA format
T6 construct: domain: MIGIS-α

[7] = target: T1, human membrane IgA overexpressed on …; assay: flow cytometry on IgA Ramos cells, OAA format; reference
[8] = target: T5, biotinylated human MIGIS-α peptide; assay: SPR (Biacore T200, 37 C), biotinylated peptide captured, OAA as analyte, 1:1 fit
[9] = target: T6, biotinylated cyno MIGIS-α peptide; assay: as above
[10] = target: recombinant human CD3 epsilon (human, UniProt P07766 23-126, limits assumed); assay: SPR
Sequence of recombinant human CD3 epsilon (P07766 23-126 limits assumed): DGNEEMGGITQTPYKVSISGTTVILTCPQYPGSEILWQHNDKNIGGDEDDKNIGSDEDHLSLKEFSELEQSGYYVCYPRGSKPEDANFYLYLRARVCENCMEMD

[11] = target: T7, human membrane IgA (mIgA), endogenously expressed on primary B cells and DAKIKI cells (human, UniProt P01876 1-398); assay: cell-based or functional assay
T7 sequence (P01876 whole entry): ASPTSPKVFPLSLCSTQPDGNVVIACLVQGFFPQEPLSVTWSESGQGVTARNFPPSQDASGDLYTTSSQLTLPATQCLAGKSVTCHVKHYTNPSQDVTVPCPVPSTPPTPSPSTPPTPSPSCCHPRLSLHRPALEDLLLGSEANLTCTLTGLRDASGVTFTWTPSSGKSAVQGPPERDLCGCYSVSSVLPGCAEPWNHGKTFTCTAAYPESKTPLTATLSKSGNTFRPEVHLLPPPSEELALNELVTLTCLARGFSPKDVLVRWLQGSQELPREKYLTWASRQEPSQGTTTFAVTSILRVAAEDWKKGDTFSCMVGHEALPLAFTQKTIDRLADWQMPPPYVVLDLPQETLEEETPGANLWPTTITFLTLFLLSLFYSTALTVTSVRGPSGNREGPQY

[12] = target: T7, human membrane IgA (mIgA), endogenously …; assay: cell-based or functional assay; remark: listed apart in the source
[13] = target: T8, membrane IgD on human IgD^+ (IgA^-) primary B cells (human, UniProt P01880 1-430); assay: flow cytometry on primary human B cells, gate IgD+ CD19+, MFI minus background
T8 construct: whole, on cells; Negative control cell population without membrane IgA; also called CD19^+, IgD^+ B cell populations; IgD cells
T8 sequence (heavy, looked up): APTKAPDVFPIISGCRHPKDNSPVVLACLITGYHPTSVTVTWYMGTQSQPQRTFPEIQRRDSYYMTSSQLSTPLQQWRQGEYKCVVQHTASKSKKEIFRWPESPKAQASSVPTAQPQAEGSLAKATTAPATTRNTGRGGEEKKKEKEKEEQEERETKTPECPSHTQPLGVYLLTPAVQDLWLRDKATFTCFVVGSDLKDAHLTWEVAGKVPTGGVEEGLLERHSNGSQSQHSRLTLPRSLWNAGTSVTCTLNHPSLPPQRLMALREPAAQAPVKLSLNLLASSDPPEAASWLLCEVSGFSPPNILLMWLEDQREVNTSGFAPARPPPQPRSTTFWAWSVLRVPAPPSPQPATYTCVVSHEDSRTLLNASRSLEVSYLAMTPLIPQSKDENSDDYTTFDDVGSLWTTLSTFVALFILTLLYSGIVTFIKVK

[14] = target: cynomolgus monkey membrane IgA (cynomolgus monkey); assay: cell-based or functional assay
[15] = target: T7, human membrane IgA (mIgA), endogenously …; assay: cell-based or functional assay; remark: listed apart in the source
[16] = target: T7, human membrane IgA (mIgA), endogenously …; assay: flow cytometry on primary human IgA+ memory B cells, mean of 3 donors
[17] = target: T1, human membrane IgA overexpressed on …; assay: flow cytometry on human IgA+ Ramos cells, mean of 3 experiments
[18] = target: T2, parental (IgA^-) Ramos cell line, which …; assay: flow cytometry on parental Ramos cells (IgM only), MFI minus background

T1 sequence (heavy, as listed by the source): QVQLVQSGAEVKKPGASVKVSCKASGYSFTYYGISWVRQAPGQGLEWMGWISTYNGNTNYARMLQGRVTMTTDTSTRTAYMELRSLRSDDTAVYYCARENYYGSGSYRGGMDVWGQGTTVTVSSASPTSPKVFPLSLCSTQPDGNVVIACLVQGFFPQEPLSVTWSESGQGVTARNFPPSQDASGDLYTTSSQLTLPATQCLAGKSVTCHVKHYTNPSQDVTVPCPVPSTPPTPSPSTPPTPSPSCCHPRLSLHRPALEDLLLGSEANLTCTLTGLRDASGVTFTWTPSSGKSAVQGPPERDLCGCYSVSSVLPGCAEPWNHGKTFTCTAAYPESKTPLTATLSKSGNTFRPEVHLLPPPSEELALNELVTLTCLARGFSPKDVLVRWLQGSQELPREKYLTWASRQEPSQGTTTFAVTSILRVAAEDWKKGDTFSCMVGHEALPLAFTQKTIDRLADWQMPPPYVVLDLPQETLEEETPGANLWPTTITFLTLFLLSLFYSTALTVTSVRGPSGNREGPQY

B1: GBT-IgA-0032 (T25) (antibody, V domains shown)
VH: QVQLVESGGGVVQPGRSLRLSCAASGFTFSSYGMHWVRQAPGKGLEWVAVISYDGSNKYYADSVKGRFTISRDNSKNTLYLQMNSLRAEDTAVYYCAKLYGGNPKDTIYHWGRGTLVTVSS
VL: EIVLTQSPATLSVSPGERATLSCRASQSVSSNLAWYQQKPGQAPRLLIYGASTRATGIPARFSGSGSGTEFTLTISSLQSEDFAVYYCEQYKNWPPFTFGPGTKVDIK
With B1 the Top [1] was 33700 gMFI, the binding result [2] was “no binding” and the EC50 [3] was 2.99 nM. For the same binder, the EC50 [4] was 2.9 nM and the “fold MFI compared to H05” value [4] was roughly 4 fold.

B2: Fab of GBT-IgA-0027 (Fab-0027) (Fab, V domains shown)
VH: B1 VH
VL: not shown
notes: Fab; constant parts not specified; antigen and Fab are written here as two molecules; also called VH-Fab-0027; T18 Fab
B2: binds (Short MIGIS-α form); binds (Long MIGIS-α form).

B3: GBT-IgA-0071 (T18 in one armed format) (antibody)
heavy: not shown
chain: EPKSSDKTHTCPPCPAPEAAGAPSVFLFPPKPKDTLMISRTPEVTCVVVDVSHEDPEVKFNWYVDGVEVHNAKTKPREEQYNSTYRVVSVLTVLHQDWLNGKEYKCKVSNKALPAPIEKTISKAKGQPREPQVYTLPPCREEMTKNQVSLSCAVKGFYPSDIAVEWESNGQPENNYKTTPPVLDSDGSFFLVSKLTVDKSRWQQGNVFSCSVMHEALHNRYTQKSLSLSPGK
light: not shown
notes: One-armed antibody; also called T18 OAA
B3 was tested, and the “fold improved affinity over GBT-IgA-0070 (H05 OAA)” value [5] was roughly 20 fold, the “fold improved binding over GBT-IgA-0070 (H05 OAA)” value [6] was roughly 5 fold and the “Fold Diff EC50 (OAA format in IgA Ramos by FLOW)” value [7] was 1 fold. For the same binder, the Kd [8] was 10.7 nM, the koff [8] was 0.0316 s⁻¹ and the kon [8] was 2.96e+06 M⁻¹ s⁻¹. For the same binder, the Kd [9] was 11.9 nM, the koff [9] was 0.0132 s⁻¹ and the kon [9] was 1.1e+06 M⁻¹ s⁻¹.

B4: BMD-IgA-1156 (anti-CD3 binding arm h2B5v6) (antibody, V domains shown)
VH: EVQLVESGGGLVQPGGSLRLSCAASGFTFSDYYMTWVRQAPGKGLEWVAFIRNQARGYTSDHNPSVKGRFTISRDNAKNSLYLQMNSLRAEDTAVYYCARDRPSYYVLDYWGQGTTVTVSS
VL: DIQMTQSPSSLSASVGDRVTITCTSSQSLFNVRSQKNYLAWYQQKPGKAPKLLIYWASTRESGVPSRFSGSGSGTDFTLTISSLQPEDFATYYCKQSYDLFTFGGGTKVEIKR
notes: Only the anti-CD3 chains are tied to this name
B4 was tested, and the Kd [10] was 17 nM.

B5: GBT-IgA-1602, anti-MIGIS-α/CD3 bispecific antibody (bispecific antibody)
heavy 1: not shown
light 1: not shown
heavy 2: EVQLVESGGGLVQPGGSLRLSCAASGFTFSDYYMTWVRQAPGKGLEWVAFIRNQARGYTSDHNPSVKGRFTISRDNAKNSLYLQMNSLRAEDTAVYYCARDRPSYYVLDYWGQGTTVTVSSASTKGPSVFPLAPSSKSTSGGTAALGCLVKDYFPEPVTVSWNSGALTSGVHTFPAVLQSSGLYSLSSVVTVPSSSLGTQTYICNVNHKPSNTKVDKKVEPKSCEKTHTCPPCPAPEAAGAPSVFLFPPKPKDTLMISRTPEVTCVVVDVSHEDPEVKFNWYVDGVEVHNAKTKPREEQYNSTYRVVSVLTVLHQDWLNGKEYKCKVSNKALPAPIEKTISKAKGQPREPQVYTLPPSREEMTKNQVSLTCEVKGFYPSDIAVEWESNGQPENNYKTTPPVLDSDGSFFLYSKLTVDKSRWQQGNVFSCSVMHEALHNHYTQKSLSLSPGK
light 2: DIQMTQSPSSLSASVGDRVTITCTSSQSLFNVRSQKNYLAWYQQKPGKAPKLLIYWASTRESGVPSRFSGSGSGTDFTLTISSLQPEDFATYYCKQSYDLFTFGGGTKVEIKRTVAAPSVFIFPPSDEQLKSGTASVVCLLNNFYPREAKVQWKVDNALQSGNSQESVTEQDSKDSTYSLSSTLTLSKADYEKHKVYACEVTHQGLSSPVTKSFNRGEC
With B5 the “EC50 (nM), IgA producing B cell kill” value [11] was 1.5 nM, the “EC50 (nM), IgA^+ memory B cell kill” value [12] was 0.587 nM and the binding result [13] was “no binding (tested: about 500 nM)”. The “Primary cell killing, potency EC50 (nM), cyno memory membrane IgA+” value [14] was 0.19 nM, the “Primary cell killing, potency EC50 (nM), cyno soluble plasma cells (IgA secreting)” value [14] was 1.34 nM and the “Primary cell killing, potency EC50 (nM), human memory B cells (membrane IgA+)” value [15] was 0.73 nM. For the same binder, the “Primary cell killing, potency EC50 (nM), human plasma cells (IgA secreting)” value [15] was 1.67 nM, the EC50 [16] was 49.8 nM and the EC50 [17] was 40.5 nM. B5: no binding (tested: about 300 nM) [18].
